{"source": "patent US12611470B2", "about": "“Chromatin-opening element for stable long term gene expression” (CZ Biohub SF, LLC, priority 2019, dated 2026)", "molecules": {"B1": {"name": "EF1a promoter: Elongation Factor 1 promoter, positive control for promoter activity (nucleic acid)", "DNA": "AATGTAGTCTTATGCAATACTCTTGTAGTCTTGCAACATGGTAACGATGAGTTAGCAACATGCCTTACAAGGAGAGAAAAAGCACCGTGCATGCCGATTGGTGGAAGTAAGGTGGTACGATCGTGCCTTATTAGGAAGGCAACAGACGGGTCTGACATGGATTGGACGAACCACTGAATTCCGCATTGCAGAGATATTGTATTTAAGTGCCTAGCTCGATACAATAAACGCCATTTGACCATTCACCACATTGGTGTGCACC", "modifications": "Rous sarcoma virus"}, "B2": {"name": "Candidate 6-1: Truncated SRF-UCOE variant having a 106 base pair 5′ end deletion, SEQ ID NO:2 (nucleic acid)", "DNA": "TTCAAAGTGCAGGGCAGACAGCAGGTGGCTCTGCCCAGGCGCCTGGATCACAGCCCGGCCTGCAGCCCTCACCTGGGCGCGGGGAGACCCTGAGGACGCTCCTCCAGGCGGCGCTGGCCGGGGCCTGCGGACACGGACGGGCGGGCTGAGCTCCGGGACCCCTCCCCGCGCCCCGCACCCCGCACCCCGCACCCCGCACCCCGCACCCGGCGCTCACCCGTCCCAGCCCCGCCGCCCGCAGCCCCAGCTGCAACGCAGCCACCGCCGCCATCGCACCCGGCCCCGCGGGCGCTTCCGGGACGCAGGAGGCATCTGCATCCGGGGCGCCGCTGAGTCCCGCCCAGAGCCCCGCCCCCGGCTCCAGGTTCTGCGAGCGGCTTCCGCCGGGCTGCTCCGCGGGCGCGTCGGCCATGAGCGAGTTGCCGGGCGACGTGCGGGCGTTTCTGCGGGAGCACCCGAGCCTGCGGCTCCAGACGGACGCCCGCAAGGTTCGCAGCGCGGGAGGGGAACGGAGTGGCGGAGAAGGGCGCAGTTGGGATGAGGGGCTGAGGGGAGGGCAGGGGAGAGGAGAGGGCAGGGGAGAGGGGAGAGGGGAGAGCAGGAGAGAGGGGAAGGCAGGGGAGAGGGCGCGGCGGGATCAGGGGAGGAGAGGGAAGGGGGCGCGGCAGGAGGGGGCACCAGGGAGCGGAGCCCTGGCCCTCCTGACGTCCTGCCCGCCCACGCGTCCGCAGGTGAGGTGCATCCTGACAGGTCACGAGCTGCCCTGCCGCCTGCCGGAGCTCCAGGTCTACACCCGCGGCAAAAAGTACCAGCGGCTGGTCCGCGCCTCCCCGGCCTTCGACTATGCAGAGTTCGAGCCGCACATCGTGCCCAGCACCAAGAACCCGTAGGTGGTC"}}, "type_in_all_cases": "cell-based, mouse", "key": {"Transduced P19 cells": {"system": "Transduced P19 cells", "assay": "Epigenetic effector experiments: rescue of GFP expression in silenced transduced cells", "procedure": "GFP expression is rescued by treatment with DNA methylation inhibitor 5-aza-cytidine (5-aza) in day 18 UCOE-RSV cells from the lentiviral silencing experiment. Cells were replica plated at day 16, specified concentrations of 5-aza were introduced 24 hours later (with exception of control), and cells were passaged and assayed via flow cytometry 24 hours after chemical introduction for % GFP+ cells. Data is reported as mean±SD from three biological replicates.\nGFP expression is rescued by treatment with HDAC inhibitor trichostatin A (TSA) in day 24 UCOE-RSV cells from the lentiviral silencing experiment. Cells were replica plated at day 22, specified concentrations of TSA were introduced 24 hours later (with exception of control), and cells were passaged and assayed via flow cytometry 24 hours after chemical introduction for % GFP+ cells. Data is reported as mean f SD from three biological replicates.\nCells were replica plated at day 16, specified concentrations of 5-aza were introduced 24 hours later (with exception of control), and cells were passaged and assayed via flow cytometry 24 hours after chemical introduction for % GFP+ cells. Data is reported as mean±SD from three biological replicates. In the graph, data is shown from left to right for each construct: no treatment, 2 μM 5-aza, 10 μM 5-aza. […] Cells were replica plated at day 22, specified concentrations of TSA were introduced 24 hours later (with exception of control), and cells were passaged and assayed via flow cytometry 24 hours after chemical introduction for % GFP+ cells. Data is reported as mean f SD from three biological replicates. In the graph, data is shown from left to right for each construct: no treatment, 0.05 μM TSA, 0.1 μM TSA. […] Cells were replica plated at day 19, treated with 0.1 μM TSA or 10 μM 5-aza (with exception of control) 24 hours later, and cells were passaged and assayed via flow cytometry 24 hours after chemical introduction for % GFP+ cells. Data is reported as mean f SD from three biological replicates. In the graphs for FIG. 6C and FIG. 6D, the data is shown from left to right for each construct: no treatment, 0.1 μM TSA, 10 μM 5-aza.\nReplica-plated cell populations were treated with varying concentrations of 5-aza-2′-deoxycytidine (Sigma-Aldrich, A3656) or Trichostatin A (Sigma-Aldrich, T1952) 24 hours after passaging. TSA was purchased as a readymade 5 mM solution in DMSO, which was then diluted to a 0.05 μM or 0.1 μM concentration in P19 growth media. 5 mg of 5-aza-2′-deoxycytidine was dissolved in 1 mL of 1:1 acetic acid: water to make a 21.9 mM stock solution, which was then diluted in P19 growth media to 2 μM or 10 μM. Cells were assayed through flow cytometry after 24 hours. […]"}, "P19 cells [1]": {"system": "P19 cells", "assay": "Standalone (intrinsic) promoter activity screen, UCOE-GFP construct lacking the Ef1a promoter", "conditions": "promoterless GFP construct, after two weeks of antibiotic selection", "source_text": "A schematic representation of the expression construct in which the candidate region (UCOE) is inserted upstream of the GFP gene in the absence of any other promoter sequences as used is shown as an inlay. As positive controls, the Ef1α promoter, the 2.2 kB A2UCOE sequence, and the 1.2 kB reverse orientation sequence 3′UCOE, were cloned into the same reporter construct as the candidate sequences. The percent GFP positive in the population was monitored as a metric for gene expression by flow cytometry analysis with each passage (% GFP). Stably transfected cells were assayed for % GFP+ and median fluorescent intensity (normalized to Ef1a promoter control). Data is reported as mean±SD from biological duplicates.\nP19 cells were seeded at 25,000 cells/well in 12 well plates. 24 h after seeding, cells were transfected using Lipofectamine™ 2000 transfection reagent (Thermo Fisher) according to the manufacturer's instructions using 500 ng DNA/well and 2.5 μL of Lipofectamine per well. 24 hours after transfection, selection was initiated with 1 μg/mL puromycin (Sigma-Aldrich) in regular growth media and, from then on, cells were passaged at 1:15 or 1:20 dilutions whenever cells were 80-90% confluent (every 2-3 days) with frequent refreshing of puromycin-containing media to clear dead cells. After approximately 14-16 days, remaining cells were assumed to be stably transfected and were changed to regular growth media to initiate silencing experiments. During silencing experiments, the P19 cells were passaged every 2-3 days and re-seeded at 15,000 cells/well.\n(§1) Fluorescence data throughout silencing experiments was obtained using a MACSQuant® VYB flow cytometer (Miltenyi Biotec). EGFP was measured through the 488-nm laser and 525/50 nm band pass filter. Flow cytometry data was analyzed using the FlowJo™ single cell flow cytometry analysis software (Tree Star). After being gated for singlets and viability, GFP+ gates in FlowJo were drawn such that a non-transfected or non-transduced P19 cell population was at 1% GFP+. Median values reported are of cells within the GFP+ gate, both % GFP positive and median are reported with the standard deviation of biological replicates.\nAs A2UOCE dually functions as a protective regulatory element and a universal promoter, the candidate UCOEs were further screened for standalone promoter activity. A similar experiment as the aforementioned screen was performed using a similar expression construct that lacked the Ef1a promoter. This construct was used to assess whether the candidate sequences could drive reporter expression and act as stand-alone functional promoters. Candidates were compared to the positive control of the EF1a promoter, which had ˜70% GFP+ cells after two weeks of antibiotic selection, showing a distinct positive population in the fluorescence histogram. The GFP+ gate (i.e., flow cytometry fluorescence threshold for GFP+ cells) was set to encompass 1% of untransfected cells and then applied to all samples. […] Such a result appears as a bimodal distribution on a histogram, with a peak below the gate threshold (i.e., GFP negative cell population) and a peak above it (i.e., the distinct GFP positive population mentioned above). […] In this study, a % GFP+ of at least 50% is considered to reflect the existence of a second population in the histograms, and thus a binary indicator of promoter function. […] The median GFP intensity of the GFP+ population was used a measure of the strength of the promoter, and normalized to the Ef1a positive control as shown in FIG. 2C.\nThis aligns with previous observations that the RNPA2B1 promoter is much stronger than that of CBX3 (Zhang, F., et al. (2010) Mol Ther, 18, 1640-1649 (7)). However, the RNPA2B1 promoter in A2UCOE is only 30% as strong as the EF1α promoter. […]"}, "P19 cells [2]": {"system": "P19 cells", "assay": "Lentiviral transduction silencing experiment, UCOE linked to CMV, EF1α, RSV or PGK promoter driving GFP", "source_text": "The graphs show the raw data of measured percent GFP positive cells (% GFP+) for each construct over time. Transduced populations were sorted into triplicate wells using FACS at day 0 (5 days after lentiviral transductions) to begin the study at 100% GFP positive cells. Expression is lost quickly within the first 10 days, and then stabilizes around day 15. Data is reported as mean±SD from biological triplicates. Two positive UCOE controls (A2UCOE, 3′UCOE) and a negative control (no insulator region) were used.\nPercent GFP positive cells at the final timepoint (day 26 for CMV and RSV, day 27 for PGK and EF1α) of the lentivirus silencing experiment across the four tested promoters is plotted. P19 cells were FACS-sorted five days after transduction (day 0) and then assayed over a 26 or 27-day time period thereafter. Data is reported as mean±SD from three biological replicates.\nTwo plasmids (pCS3800: encoding HIV-1 Gag; pCS380: encoding VSVg envelope protein) were used with varying versions of the donor plasmid pCS3799. HEK293T cells were plated at 5×10^6 cells in a 10 cm dish. Twenty-four hours after plating, the three plasmids (10 μg donor, 8 μg pCS3800, 10 μg pCS3801) were co-transfected together using a calcium phosphate protocol (Zufferey, R. T. and Trono, D. (2001) Current Protocols in Human Genetics, 26 (1), 12.10.1-12.10.12; DOI: 10.1002/0471142905.hg1210s26 (55)). The total DNA was brought to 500 μL in water, to which 500 μL of 2×HEPES-buffered saline, pH7.0 (Alfa Aesar) was added and mixed. One-tenth of the total volume (100 μL) of 2.5 M calcium chloride (Sigma-Aldrich) was then added to the mixture, followed by a 20-minute incubation. The mixture was then added to the plate in a dropwise manner. Media was replaced six hours later, and the supernatant was collected at 48 hr after the transfection, filtered through 0.4 μm filter, and frozen at −80° C. in 1 mL aliquots. Lentiviral aliquots were thawed in a 37° C. bead bath before transductions.\nP19 cells were plated at 20-30,000 cells/well in 12-well plates one day before transduction. Twenty-four hours after plating, cells were transduced at varying dilutions of the lentiviral stock (ranging from 1:2 to 1:100) in DMEM+10% FBS with 8 μg/mL polybrene (Santa Cruz Biotechnologies). Media was refreshed on P19 cells 24 hours after transduction, and cells were passaged and assayed through a MACSQuant® VYB flow cytometer (Miltenyi Biotec) 48 h after transduction. MOI was determined by reporter expression at this timepoint using the following formula: MOI=ln (1/1-p) where p is the % of cells that are GFP positive at 48 hours post-transduction (Chen, S. et al. (2015) Cell, 160, 1246-1260 (56)).\nCells were FACS-sorted on the BD Influx™ cell sorter at the Stanford FACS Facility using the 488-nm laser and 525/40 filter to assay GFP expression. After gating for singlets and viability, GFP+ gate was drawn to be <0.1% GFP positive in non-transduced P19 cells. GFP+ gates were re-drawn for each promoter set to avoid the ˜10% highest and lowest expressing cells within the GFP+ gate, but the same gate was used for every experimental condition under the same promoter. Triplicate wells of each population (12-15,000 cells/well in a 24-well plate) were collected.\nas §1, with “replicates. […]” for “replicates.”"}}, "data": [{"molecule": "Nc1ncn([C@@H]2O[C@H](CO)[C@@H](O)[C@H]2O)c(=O)n1", "note": "[Candidate 5-aza, 5-azacytidine]", "values": [{"measurement": "reactivation of GFP expression", "setting": "Transduced P19 cells; all examined populations, range of concentrations", "value": "dose-dependent increase in % GFP positive cells"}, {"measurement": "silenced cells rescued", "setting": "Transduced P19 cells; highest dose of 5-aza, RSV promoter-only construct, day 18 cells, 24 h treatment", "value": 63, "unit": "%"}]}, {"molecule": "B1", "values": [{"measurement": "% GFP+ cells", "setting": "P19 cells [1]", "value": "~70", "unit": "%"}, {"measurement": "% GFP+ cells, representative flow cytometry example", "setting": "P19 cells [1]; one representative example", "value": 74.2, "unit": "%"}]}, {"molecule": "B2", "values": [{"measurement": "% GFP+ cells at final timepoint", "setting": "P19 cells [2]; CMV promoter, day 26", "value": 39, "unit": "%"}, {"measurement": "improvement over the negative control", "setting": "P19 cells [2]; CMV promoter, day 26", "value": 3, "unit": "fold"}, {"measurement": "GFP positive cells / expression compared to the negative control", "setting": "P19 cells [2]; Ef1α promoter, final timepoint", "value": 3.6, "unit": "times"}, {"measurement": "% GFP+ cells at final timepoint", "setting": "P19 cells [2]; PGK promoter, day 27", "value": 31, "unit": "%"}, {"measurement": "expressing cells / improvement over the negative control", "setting": "P19 cells [2]; PGK promoter, day 27", "value": 5, "unit": "fold"}, {"measurement": "% GFP+ cells at final timepoint", "setting": "P19 cells [2]; RSV promoter, day 26", "value": 68, "unit": "%"}]}]}
